The values below come from US20230372448A1, “THERAPEUTIC USE OF LONG-ACTING CONJUGATE OF TRIPLE AGONIST ACTING ON ALL OF GLUCAGON, GLP-1 AND GIP RECEPTORS AGAINST MULTIPLE SCLEROSIS” (HANMI PHARM. CO. ,LTD., priority 2020, published 2023).

Holding throughout (assay): cell-based or functional assay
One assay concerns the target T1, human GIP receptor (human, UniProt P48546 22-466).
T1 sequence (looked up): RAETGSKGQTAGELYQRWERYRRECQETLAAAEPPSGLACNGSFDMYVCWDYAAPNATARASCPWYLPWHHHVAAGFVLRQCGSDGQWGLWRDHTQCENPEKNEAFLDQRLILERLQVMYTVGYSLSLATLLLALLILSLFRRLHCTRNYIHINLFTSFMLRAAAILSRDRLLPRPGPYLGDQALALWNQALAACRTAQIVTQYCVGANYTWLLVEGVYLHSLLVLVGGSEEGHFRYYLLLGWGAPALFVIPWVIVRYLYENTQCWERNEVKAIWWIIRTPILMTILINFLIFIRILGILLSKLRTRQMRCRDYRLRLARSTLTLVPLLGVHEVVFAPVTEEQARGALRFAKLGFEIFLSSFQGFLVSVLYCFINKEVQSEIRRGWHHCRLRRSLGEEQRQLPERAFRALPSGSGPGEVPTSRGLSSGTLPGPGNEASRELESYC

A further assay addresses human GLP-1 receptor (human, UniProt P43220 24-463).
The next assay has as its target human GCG receptor (human, UniProt P47871 26-477).

Positions of bridges follow the written chain, without caps; N, C: chain ends. Non-standard residues stand in square brackets, D forms with d. No end group written: not given here. *: point of attachment. Acetyl(2-(4-imidazolyl)) = O=C(Cc1c[nH]cn1)*; Aib = CC(C)(N)C(=O)O

human GCG receptor, sequence (P47871 26-477): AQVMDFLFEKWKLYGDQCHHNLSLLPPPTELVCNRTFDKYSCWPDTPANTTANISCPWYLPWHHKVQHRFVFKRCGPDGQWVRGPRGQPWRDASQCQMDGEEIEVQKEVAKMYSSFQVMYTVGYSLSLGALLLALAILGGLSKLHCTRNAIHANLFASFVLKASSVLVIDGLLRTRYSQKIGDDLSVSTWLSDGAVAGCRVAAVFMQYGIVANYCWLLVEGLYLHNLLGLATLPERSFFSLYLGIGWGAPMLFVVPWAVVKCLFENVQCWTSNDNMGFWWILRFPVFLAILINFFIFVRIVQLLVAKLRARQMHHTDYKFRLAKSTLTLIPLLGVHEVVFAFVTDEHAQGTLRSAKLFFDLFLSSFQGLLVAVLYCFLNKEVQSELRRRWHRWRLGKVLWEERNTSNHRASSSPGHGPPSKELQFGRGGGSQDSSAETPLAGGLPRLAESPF

B1: triple agonist of SEQ ID NO: 73 (peptide)
peptide: {Acetyl(2-(4-imidazolyl))}-[Aib]QGTFTSDYSKYLDECRAKEFVQWLLDHHPSSGQPPPS
modifications: bridge 15-19; not fully specified
Consider B1, for which, in the assay with human GIP receptor, the “In vitro activity (%) compared with native peptide: vs GIP” value (“In vitro activity (%) … vs GIP” below) was determined as 3%. For the same molecule, the “In vitro activity (%) compared with native peptide: vs GLP-1” value (shortened to “In vitro activity (%) … vs GLP-1”) with human GLP-1 receptor is 22.6%. Besides, the “In vitro activity (%) compared with native peptide: vs Glucagon” value (shortened to “In vitro activity (%) … vs Glucagon”) with human GCG receptor is 5.4%.

B2: triple agonist of SEQ ID NO: 70 (peptide)
peptide: Y[Aib]QGTFTSDYSKCLDEKRAKDFVQWLLDHHPSSGQPPPS
modifications: bridge 16-20; not fully specified
As for B2, in the assay with human GIP receptor, the “In vitro activity (%) … vs GIP” value was found to be 64.4%. For the same molecule, the “In vitro activity (%) … vs GLP-1” value in the assay with human GLP-1 receptor came out at 15.1%. For the same molecule, in the assay with human GCG receptor, the “In vitro activity (%) … vs Glucagon” value came out at 71.3%.

B3: triple agonist of SEQ ID NO: 59 (peptide)
peptide: {Acetyl(2-(4-imidazolyl))}-[Aib]QGTFTSDYSICMDEKHQKDFVNWLLNTK
modifications: bridge 15-19; not fully specified
Consider B3, for which, in the assay with human GIP receptor, the “In vitro activity (%) … vs GIP” value is 4%. Also, the “In vitro activity (%) … vs GLP-1” value in the assay with human GLP-1 receptor was found to be 40.3%. The “In vitro activity (%) … vs Glucagon” value in the assay with human GCG receptor was less than 0.1%.

B4: triple agonist of SEQ ID NO: 64 (peptide)
peptide: Y[Aib]QGTFTSDYSKYLDECAAKEFVQWLLDHHPSSGQPPPS
modifications: bridge 16-20; not fully specified
For B4, the “In vitro activity (%) … vs GIP” value with human GIP receptor was determined as 92.9%. Also, the “In vitro activity (%) … vs GLP-1” value in the assay with human GLP-1 receptor turned out to be 64.6%. In addition, in the assay with human GCG receptor, the “In vitro activity (%) … vs Glucagon” value was found to be 60.1%.

B5: triple agonist of SEQ ID NO: 66 (peptide)
peptide: Y[Aib]QGTFTSDYSKYLDECRAKDFVQWLLDHHPSSGQPPPS
modifications: bridge 16-20; not fully specified
On to B5, for which, in the assay with human GIP receptor, the “In vitro activity (%) … vs GIP” value is 17.2%. Further, the “In vitro activity (%) … vs GLP-1” value with human GLP-1 receptor stood at 15.8%. For the same molecule, the “In vitro activity (%) … vs Glucagon” value in the assay with human GCG receptor came out at 172%.

B6: triple agonist of SEQ ID NO: 68 (peptide)
peptide: Y[Aib]QGTFTSDYSKCLDEKAAKEFVQWLLDHHPSSGQPPPS
modifications: bridge 16-20; not fully specified
B6: in the assay with human GIP receptor, the “In vitro activity (%) … vs GIP” value amounted to 107%. Also, the “In vitro activity (%) … vs GLP-1” value with human GLP-1 receptor came out at 27.9%. Moreover, the “In vitro activity (%) … vs Glucagon” value in the assay with human GCG receptor worked out at 8.8%.

B7: triple agonist of SEQ ID NO: 69 (peptide)
peptide: Y[Aib]QGTFTSDYSKCLDERAAKEFVQWLLDHHPSSGQPPPS
modifications: bridge 16-20; not fully specified
Take B7: the “In vitro activity (%) … vs GIP” value with human GIP receptor amounted to 62.8%. The “In vitro activity (%) … vs GLP-1” value with human GLP-1 receptor is 24.3%. For the same molecule, the “In vitro activity (%) … vs Glucagon” value with human GCG receptor amounted to 9.6%.

B8: triple agonist of SEQ ID NO: 7 (peptide)
peptide: H[Aib]QGTFTSDVSKYLDGQAAKEFVAWLLKGC
modifications: not fully specified
As for B8, in the assay with human GIP receptor, the “In vitro activity (%) … vs GIP” value is less than 0.1%. For the same molecule, the “In vitro activity (%) … vs GLP-1” value in the assay with human GLP-1 receptor is 13.7%. In addition, the “In vitro activity (%) … vs Glucagon” value with human GCG receptor was less than 0.1%.

B9: triple agonist of SEQ ID NO: 63 (peptide)
peptide: {Acetyl(2-(4-imidazolyl))}-[Aib]QGTFTSDCSKYLDERAAQDFVQWLLDGGPSSGAPPPS
modifications: not fully specified
Take B9: the “In vitro activity (%) … vs GIP” value with human GIP receptor was less than 0.1%. The “In vitro activity (%) … vs GLP-1” value with human GLP-1 receptor worked out at 15.3%. Besides, the “In vitro activity (%) … vs Glucagon” value in the assay with human GCG receptor is less than 0.1%.

B10: triple agonist of SEQ ID NO: 72 (peptide)
peptide: Y[Aib]QGTFTSDCSKYLDERAAKDFVQWLLDHHPSSGQPPPS
modifications: bridge 16-20; not fully specified
For the molecule B10, the “In vitro activity (%) … vs GIP” value with human GIP receptor stood at 1.6%. Moreover, the “In vitro activity (%) … vs GLP-1” value with human GLP-1 receptor came to 11.5%. Further, the “In vitro activity (%) … vs Glucagon” value with human GCG receptor is 1%.

B11: triple agonist of SEQ ID NO: 67 (peptide)
peptide: Y[Aib]QGTFTSDYSKYLDECAAKDFVQWLLDHHPSSGQPPPS
modifications: bridge 16-20
For B11, in the assay with human GIP receptor, the “In vitro activity (%) … vs GIP” value worked out at 39.8%. The “In vitro activity (%) … vs GLP-1” value with human GLP-1 receptor was 28.5%. Moreover, the “In vitro activity (%) … vs Glucagon” value with human GCG receptor was 46.2%.

B12: triple agonist of SEQ ID NO: 61 (peptide)
peptide: {Acetyl(2-(4-imidazolyl))}-[Aib]QGTFTSDYSIAMDEIACKDFVNWLLNTK
modifications: bridge 15-19; not fully specified
Consider B12, for which the “In vitro activity (%) … vs GIP” value with human GIP receptor came to 2.8%. Moreover, the “In vitro activity (%) … vs GLP-1” value with human GLP-1 receptor amounted to 59.8%. For the same molecule, the “In vitro activity (%) … vs Glucagon” value in the assay with human GCG receptor was less than 0.1%.

B13: triple agonist of SEQ ID NO: 60 (peptide)
peptide: {Acetyl(2-(4-imidazolyl))}-[Aib]QGTFTSDYSIAMDEKHCKDFVNWLLNTK
modifications: bridge 15-19; not fully specified
On to B13, for which the “In vitro activity (%) … vs GIP” value with human GIP receptor was 8.2%. Besides, the “In vitro activity (%) … vs GLP-1” value in the assay with human GLP-1 receptor was 106%. Also, the “In vitro activity (%) … vs Glucagon” value with human GCG receptor is less than 0.1%.

B14: triple agonist of SEQ ID NO: 62 (peptide)
peptide: {Acetyl(2-(4-imidazolyl))}-[Aib]QGTFTSDKSKYLDERAAQDFVQWLLDGGPSSGAPPPS
modifications: not fully specified
On to B14, for which the “In vitro activity (%) … vs GIP” value with human GIP receptor was less than 0.1%. In addition, in the assay with human GLP-1 receptor, the “In vitro activity (%) … vs GLP-1” value was determined as 5.2%. For the same molecule, the “In vitro activity (%) … vs Glucagon” value with human GCG receptor was less than 0.1%.

B15: triple agonist of SEQ ID NO: 65 (peptide)
peptide: H[Aib]QGTFTSDYSKCLDEKRAKEFVQWLLDHHPSSGQPPPS
modifications: bridge 16-20; not fully specified
As for B15, in the assay with human GIP receptor, the “In vitro activity (%) … vs GIP” value came out at 11.6%. Besides, the “In vitro activity (%) … vs GLP-1” value with human GLP-1 receptor worked out at 95.4%. The “In vitro activity (%) … vs Glucagon” value in the assay with human GCG receptor was determined as 25.2%.

B16: triple agonist of SEQ ID NO: 71 (peptide)
peptide: Y[Aib]QGTFTSDYSKYLDERACKDFVQWLLDHHPSSGQPPPS
modifications: bridge 16-20; not fully specified
In the case of B16, the “In vitro activity (%) … vs GIP” value with human GIP receptor came to 94.7%. Besides, the “In vitro activity (%) … vs GLP-1” value with human GLP-1 receptor was determined as 90.1%. In addition, in the assay with human GCG receptor, the “In vitro activity (%) … vs Glucagon” value was found to be 12.7%.

B17: triple agonist of SEQ ID NO: 74 (peptide)
peptide: {Acetyl(2-(4-imidazolyl))}-[Aib]QGTFTSDYSKCLDEKRAKEFVQWLLDHHPSSGQPPPS
modifications: bridge 15-19; not fully specified
For B17, in the assay with human GIP receptor, the “In vitro activity (%) … vs GIP” value was 1%. Besides, the “In vitro activity (%) … vs GLP-1” value with human GLP-1 receptor was 12.9%. In the assay with human GCG receptor, the “In vitro activity (%) … vs Glucagon” value came out at 0.9%.

B18: triple agonist of SEQ ID NO: 58 (peptide)
peptide: H[Aib]QGTFTSDYSKYLDEKRQKEFVQWLLNTKC
modifications: bridge 16-20; not fully specified
As to B18, the “In vitro activity (%) … vs GIP” value with human GIP receptor amounted to 0.2%. In addition, the “In vitro activity (%) … vs GLP-1” value in the assay with human GLP-1 receptor worked out at 39.1%. The “In vitro activity (%) … vs Glucagon” value with human GCG receptor came to 2.6%.
